The results in this text go back to patent US20250206828A1, “ANTI-ADENOSINE RECEPTOR (A2aR) ANTIBODIES AND THE USE THEREOF” (Adept Therapeutics Inc., priority 2022, published 2025).

The target in this assay is human A2aR (Homo sapiens, UniProt P29274). Put plainly: Binding of humanized anti-A2aR antibodies in transfected Expi293F cell supernatant to human A2aR on HEK293 cells (FACS, MFI). The conditions noted are these: for binding to human A2aR on cell surface, mean fluorescence intensity (MFI): supernatant normalized to 1 μg/ml antibody, HEK293 cells stably overexpressing human A2aR, greater MFI = stronger binding, parental value average of triplicate. How it is done:
Briefly, HEK293 cells that stably overexpress human A2aR (HEK-hA2aR OCL, BPS Bioscience, Cat. 79381) were collected from fresh culture. Cells were then resuspended in FACS buffer (1×DPBS/1% FBS) at 10^6/ml concentration. One hundred microliters (100 μl) of cells were aliquoted into each well of a 96 well plates. After centrifugation, cell pellets in each well were then resuspended with 100 μl normalized supernatant samples containing 1 μg/ml humanized anti-A2aR monoclonal antibody variants collected from transfected Expi293 cell culture. The supernatants were mixed with the cells and incubated on ice for 1 hours. After washing the mixtures of the supernatants containing expressed antibodies and the A2aR-expressing cells with FACS buffer, one hundred microliters (100 μl) of 1:400 diluted PE-conjugated anti-human Fc secondary antibody (Jackson Immuno Research, Cat. 109-116-098) was added to each well followed by an incubation for 30 minutes on ice. After washes with FACS buffer, stained cells were resuspended in 150 μl of 7-AAD (Biolegend, Cat. 420404) diluted 1:100 in 1×DPBS buffer and incubate for 5 minutes in the dark at room temperature before FACS analysis. The mean fluorescence intensity (MFI) was obtained using Guava 11HT or 5HT (Luminex). Data was analyzed using Flowjo software.
As shown in Tables 22-24, exemplary humanized anti-A2aR antibodies bind to A2aR expressed on a cell surface. A greater MFI value means stronger binding of the exemplary antibody to A2aR expressed on a cell surface.

The mark [1] stands for this setting: supernatant with 1 μg/ml antibody, HEK293 overexpressing human A2aR, heavy chain (row) x light chain.

Chain of human A2aR (P29274 whole entry): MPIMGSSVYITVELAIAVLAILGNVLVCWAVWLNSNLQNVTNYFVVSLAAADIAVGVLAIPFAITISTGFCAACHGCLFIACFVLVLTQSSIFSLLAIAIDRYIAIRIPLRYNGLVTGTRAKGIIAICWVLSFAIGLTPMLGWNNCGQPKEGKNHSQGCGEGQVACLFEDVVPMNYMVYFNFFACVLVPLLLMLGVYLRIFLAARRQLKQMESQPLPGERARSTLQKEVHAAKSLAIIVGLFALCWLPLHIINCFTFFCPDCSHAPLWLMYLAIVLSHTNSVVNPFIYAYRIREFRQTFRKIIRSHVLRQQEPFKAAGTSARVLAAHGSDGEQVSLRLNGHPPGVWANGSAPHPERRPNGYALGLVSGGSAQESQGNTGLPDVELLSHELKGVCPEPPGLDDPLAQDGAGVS

B1: Hu1B5-H6/Hu1B5-L1: humanized anti-A2aR IgG1 FES antibody; HCVR SEQ ID NO:57, LCVR SEQ ID NO:71 (antibody, V domains shown)
VH: EVQLVQSGAEVKKPGESLRISCKTSGFTFTRFWMNWVRQMPGKGLEWIGRIDPYDSETQYNHKFWDHATLSVDKSSSTVYLQWSSLKASDTAMYYCGRSLYGKGDYWGQGTTVTVSS
VL: DVVMTQSPLSLPVTLGQPASISCRSSQSIVHSNGNTYLEWFQQRPGQSPRRLIYKVSNRFSGVPDRFSGSGSGTDFTLKISRVEAEDVGVYYCFQGSHVPLTFGGGTKVEIK
modifications: IgG1 FES constant regions
For B1, the “binding to human A2aR on cell surface, mean fluorescence intensity (MFI)” value (“binding to human A2aR on cell surface … (MFI)” below) worked out at 178.

B2: Hu1B5-H2.1/Hu1B5-L1: humanized anti-A2aR IgG1 FES antibody; HCVR SEQ ID NO:53, LCVR SEQ ID NO:71 (antibody, V domains shown)
VH: EVQLVQSGAEVKKPGASVKVSCKTSGFTFTRFWMNWVRQAPGQGLEWIGRIDPYDSETQYNHKFWDRVTMTVDTSTSTVYMELSSLRSEDTAVYYCGRSLYGKGDYWGQGTTVTVSS
VL: DVVMTQSPLSLPVTLGQPASISCRSSQSIVHSNGNTYLEWFQQRPGQSPRRLIYKVSNRFSGVPDRFSGSGSGTDFTLKISRVEAEDVGVYYCFQGSHVPLTFGGGTKVEIK
As to B2, the “binding to human A2aR on cell surface … (MFI)” value came to 145.

B3: Hu3F6-H4/Hu3F6-L1: humanized anti-A2aR IgG1 FES antibody; HCVR SEQ ID NO:61, LCVR SEQ ID NO:76 (antibody, V domains shown)
VH: EVQLVQSGAEVKKPGASVKVSCKTSGFAFTSYWMNWVRQAPGQGLEWIGRIDPSDSEAHYHHKFWGRATLTVDKSSSTVYMELSSLRSEDTAVYYCLRSLYGKGDYWGHGTTVTVSS
VL: DVVMTQSPLSLPVTLGQPASISCRSSQSLVHRNGNTYLEWFQQRPGQSPRRLIYKVSNRFSGVPDRFSGSGSGTDFTLKISRVEAEDVGVYYCYQGSHVPLTFGGGTKVEIK
For the molecule B3, under setting [1], the “MFI, binding to human A2aR on cell surface (3F6-9G5 derived)” value (shortened to “MFI, binding … (3F6-9G5 derived)”) stood at 21.

B4: Hu3F8-H4/Hu3F8-L1: humanized anti-A2aR IgG1 FES antibody; HCVR SEQ ID NO:67, LCVR SEQ ID NO:84 (antibody, V domains shown)
VH: EVQLVQSGAEVKKPGASVKVSCKASGFTFTRYWMNWVRQAPGQGLEWIGRIDPSDSETHYNHKFWGRATLTVDKSTSTVYMELSSLRSEDTAVYYCLRSLYGKGDYWGQGTTVTVSS
VL: DVVMTQSPLSLPVTLGQPASISCRSSQSIVHSNGNTYLEWFQQRPGQSPRRLIYKVSNRFSGVPDRFSGSGSGTDFTLKISRVEAEDVGVYYCYQGSHVPLTFGGGTKVEIK
As for B4, under setting [1], the “MFI, binding to human A2aR on cell surface (3F8-12E9 derived)” value was 110.

B5: Hu3F6-H2/Hu3F6-L2: humanized anti-A2aR IgG1 FES antibody; HCVR SEQ ID NO:59, LCVR SEQ ID NO:77 (antibody, V domains shown)
VH: EVQLVQSGAEVKKPGASVKVSCKTSGFAFTSYWMNWVRQAPGQGLEWMGRIDPSDSEAHYHHKFWGRVTMTVDTSTSTVYMELSSLRSEDTAVYYCLRSLYGKGDYWGHGTTVTVSS
VL: DVVMTQSPLSLPVTLGQPASISCRSSQSLVHRNGNTYLEWYQQRPGQSPRRLIYKVSNRFSGVPDRFSGSGSGTDFTLKISRVEAEDVGVYYCYQGSHVPLTFGGGTKVEIK
modifications: IgG1 FES constant regions
For B5, the “MFI, binding … (3F6-9G5 derived)” value under setting [1] came out at 146.

B6: Hu1B5-H2/Hu1B5-L1: humanized anti-A2aR IgG1 FES antibody; HCVR SEQ ID NO:52, LCVR SEQ ID NO:71 (antibody, V domains shown)
VH: EVQLVQSGAEVKKPGASVKVSCKTSGFTFTRFWMNWVRQAPGQGLEWMGRIDPYDSETQYNHKFWDRVTMTVDTSTSTVYMELSSLRSEDTAVYYCGRSLYGKGDYWGQGTTVTVSS
VL: DVVMTQSPLSLPVTLGQPASISCRSSQSIVHSNGNTYLEWFQQRPGQSPRRLIYKVSNRFSGVPDRFSGSGSGTDFTLKISRVEAEDVGVYYCFQGSHVPLTFGGGTKVEIK
modifications: IgG1 FES constant regions
Regarding B6, the “binding to human A2aR on cell surface … (MFI)” value turned out to be 165.

B7: Hu3F6-H5/Hu3F6-L2: humanized anti-A2aR IgG1 FES antibody; HCVR SEQ ID NO:62, LCVR SEQ ID NO:77 (antibody, V domains shown)
VH: EVQLVQSGAEVKKPGASVKVSCKTSGFAFTSYWMNWVRQAPGQGLEWIGRIDPSDSEAHYAHKFWGRATLTVDKSSSTVYMELSSLRSEDTAVYYCLRSLYGKGDYWGHGTTVTVSS
VL: DVVMTQSPLSLPVTLGQPASISCRSSQSLVHRNGNTYLEWYQQRPGQSPRRLIYKVSNRFSGVPDRFSGSGSGTDFTLKISRVEAEDVGVYYCYQGSHVPLTFGGGTKVEIK
As for B7, under setting [1], the “MFI, binding … (3F6-9G5 derived)” value was found to be 191.

B8: Hu3F6-H3/Hu3F6-L1: humanized anti-A2aR IgG1 FES antibody; HCVR SEQ ID NO:60, LCVR SEQ ID NO:76 (antibody, V domains shown)
VH: EVQLVQSGAEVKKPGASVKVSCKTSGFAFTSYWMNWVRQAPGQGLEWIGRIDPSDSEAHYHHKFWGRATLTVDTSSSTVYMELSSLRSEDTAVYYCLRSLYGKGDYWGHGTTVTVSS
VL: DVVMTQSPLSLPVTLGQPASISCRSSQSLVHRNGNTYLEWFQQRPGQSPRRLIYKVSNRFSGVPDRFSGSGSGTDFTLKISRVEAEDVGVYYCYQGSHVPLTFGGGTKVEIK
Turning to B8, the “MFI, binding … (3F6-9G5 derived)” value under setting [1] stood at 12.

B9: Hu3F6-H3/Hu3F6-L2: humanized anti-A2aR IgG1 FES antibody; HCVR SEQ ID NO:60, LCVR SEQ ID NO:77 (antibody, V domains shown)
VH: EVQLVQSGAEVKKPGASVKVSCKTSGFAFTSYWMNWVRQAPGQGLEWIGRIDPSDSEAHYHHKFWGRATLTVDTSSSTVYMELSSLRSEDTAVYYCLRSLYGKGDYWGHGTTVTVSS
VL: DVVMTQSPLSLPVTLGQPASISCRSSQSLVHRNGNTYLEWYQQRPGQSPRRLIYKVSNRFSGVPDRFSGSGSGTDFTLKISRVEAEDVGVYYCYQGSHVPLTFGGGTKVEIK
B9: under setting [1], the “MFI, binding … (3F6-9G5 derived)” value is given as 200.

B10: Hu1B5-H1/Hu1B5-L2: humanized anti-A2aR IgG1 FES antibody; HCVR SEQ ID NO:51, LCVR SEQ ID NO:72 (antibody, V domains shown)
VH: QVQLVQSGAEVKKPGASVKVSCKASGFTFTRFWMNWVRQAPGQGLEWMGRIDPYDSETQYNHKFWDRVTMTRDTSTSTVYMELSSLRSEDTAVYYCGRSLYGKGDYWGQGTTVTVSS
VL: DVVMTQSPLSLPVTLGQPASISCRSSQSIVHSNGNTYLEWYQQRPGQSPRRLIYKVSNRFSGVPDRFSGSGSGTDFTLKISRVEAEDVGVYYCFQGSHVPLTFGGGTKVEIK
On to B10, for which the “binding to human A2aR on cell surface … (MFI)” value is 62.

B11: Hu3F6-H5/Hu3F6-L1: humanized anti-A2aR IgG1 FES antibody; HCVR SEQ ID NO:62, LCVR SEQ ID NO:76 (antibody, V domains shown)
VH: EVQLVQSGAEVKKPGASVKVSCKTSGFAFTSYWMNWVRQAPGQGLEWIGRIDPSDSEAHYAHKFWGRATLTVDKSSSTVYMELSSLRSEDTAVYYCLRSLYGKGDYWGHGTTVTVSS
VL: DVVMTQSPLSLPVTLGQPASISCRSSQSLVHRNGNTYLEWFQQRPGQSPRRLIYKVSNRFSGVPDRFSGSGSGTDFTLKISRVEAEDVGVYYCYQGSHVPLTFGGGTKVEIK
Consider B11, for which, under setting [1], the “MFI, binding … (3F6-9G5 derived)” value turned out to be 25.
